Legend:
[1] = molecular target: feline FcRn complex (FcRn-α subunit and β-microglobulin) (feline); experiment: SPR (Biacore), FcRn on SA chip, pH 6
[2] = molecular target: feline FcRn complex (FcRn-α subunit and β-microglobulin) (feline); experiment: SPR (Biacore), FcRn on SA chip, pH 7.4

Row | Binder | Kd [1] | Kd [2]
1 | feline IgG1a mutant ID No. 346: S252Y, S428M, S434F, G402R (antibody, part only; not given: Variable domains, not shown: another chain or arm of the molecule) constant: ASTTAPSVFPLAPSCGTTSGATVALACLVLGYFPEPVTVSWNSGALTSGVHTFPAVLQASGLYSLSSMVTVPSSRWLSDTFTCNVAHPPSNTKVDKTVRKTDHPPGPKPCDCPKCPPPEMLGGPSIFIFPPKPKDTLYISRTPEVTCLVVDLGPDDSDVQITWFVDNTQVYTAKTSPREEQFNSTYRVVSVLPILHQDWLKGKEFKCKVNSKSLPSPIERTISKAKGQPHEPQVYVLPPAQEELSRNKVSVTCLIKSFHPPDIAVEWEITGQPEPENNYRTTPPQLDSDRTYFVYSKLSVDRSHWQRGNTYTCSVMHEALHFHHTQKSLTQSPGK | 0.0404 nM | 9.95 nM
2 | feline IgG1a mutant ID No. 352: S252Y, S428M, S434F, Q311Y (antibody, part only; not given: Variable domains, not shown: another chain or arm of the molecule) constant: ASTTAPSVFPLAPSCGTTSGATVALACLVLGYFPEPVTVSWNSGALTSGVHTFPAVLQASGLYSLSSMVTVPSSRWLSDTFTCNVAHPPSNTKVDKTVRKTDHPPGPKPCDCPKCPPPEMLGGPSIFIFPPKPKDTLYISRTPEVTCLVVDLGPDDSDVQITWFVDNTQVYTAKTSPREEQFNSTYRVVSVLPILHYDWLKGKEFKCKVNSKSLPSPIERTISKAKGQPHEPQVYVLPPAQEELSRNKVSVTCLIKSFHPPDIAVEWEITGQPEPENNYRTTPPQLDSDGTYFVYSKLSVDRSHWQRGNTYTCSVMHEALHFHHTQKSLTQSPGK | 0.0271 nM | 6.48 nM
3 | feline IgG1a mutant ID No. 360: S252Y, S434R, D312H (antibody, part only; not given: Variable domains, not shown: another chain or arm of the molecule) constant: ASTTAPSVFPLAPSCGTTSGATVALACLVLGYFPEPVTVSWNSGALTSGVHTFPAVLQASGLYSLSSMVTVPSSRWLSDTFTCNVAHPPSNTKVDKTVRKTDHPPGPKPCDCPKCPPPEMLGGPSIFIFPPKPKDTLYISRTPEVTCLVVDLGPDDSDVQITWFVDNTQVYTAKTSPREEQFNSTYRVVSVLPILHQHWLKGKEFKCKVNSKSLPSPIERTISKAKGQPHEPQVYVLPPAQEELSRNKVSVTCLIKSFHPPDIAVEWEITGQPEPENNYRTTPPQLDSDGTYFVYSKLSVDRSHWQRGNTYTCSVSHEALHRHHTQKSLTQSPGK | 1.09 nM | 43.1 nM
4 | feline IgG1a mutant ID No. 356: S252Y, S428M, S434F, T403R (antibody, part only; not given: Variable domains, not shown: another chain or arm of the molecule) constant: ASTTAPSVFPLAPSCGTTSGATVALACLVLGYFPEPVTVSWNSGALTSGVHTFPAVLQASGLYSLSSMVTVPSSRWLSDTFTCNVAHPPSNTKVDKTVRKTDHPPGPKPCDCPKCPPPEMLGGPSIFIFPPKPKDTLYISRTPEVTCLVVDLGPDDSDVQITWFVDNTQVYTAKTSPREEQFNSTYRVVSVLPILHQDWLKGKEFKCKVNSKSLPSPIERTISKAKGQPHEPQVYVLPPAQEELSRNKVSVTCLIKSFHPPDIAVEWEITGQPEPENNYRTTPPQLDSDGRYFVYSKLSVDRSHWQRGNTYTCSVMHEALHFHHTQKSLTQSPGK | 0.0249 nM | 9.98 nM
5 | feline IgG1a mutant ID No. 349: S252Y, S428M, S434F, Q311K (antibody, part only; not given: variable domains and light chain, not shown: another chain or arm of the molecule) constant: ASTTAPSVFPLAPSCGTTSGATVALACLVLGYFPEPVTVSWNSGALTSGVHTFPAVLQASGLYSLSSMVTVPSSRWLSDTFTCNVAHPPSNTKVDKTVRKTDHPPGPKPCDCPKCPPPEMLGGPSIFIFPPKPKDTLYISRTPEVTCLVVDLGPDDSDVQITWFVDNTQVYTAKTSPREEQFNSTYRVVSVLPILHKDWLKGKEFKCKVNSKSLPSPIERTISKAKGQPHEPQVYVLPPAQEELSRNKVSVTCLIKSFHPPDIAVEWEITGQPEPENNYRTTPPQLDSDGTYFVYSKLSVDRSHWQRGNTYTCSVMHEALHFHHTQKSLTQSPGK | 0.0192 nM | 4.78 nM
6 | feline IgG1a mutant ID No. 347: S252Y, S428M, S434F, L314K (antibody, part only; not given: variable domains and light chain, not shown: another chain or arm of the molecule) constant: ASTTAPSVFPLAPSCGTTSGATVALACLVLGYFPEPVTVSWNSGALTSGVHTFPAVLQASGLYSLSSMVTVPSSRWLSDTFTCNVAHPPSNTKVDKTVRKTDHPPGPKPCDCPKCPPPEMLGGPSIFIFPPKPKDTLYISRTPEVTCLVVDLGPDDSDVQITWFVDNTQVYTAKTSPREEQFNSTYRVVSVLPILHQDWKKGKEFKCKVNSKSLPSPIERTISKAKGQPHEPQVYVLPPAQEELSRNKVSVTCLIKSFHPPDIAVEWEITGQPEPENNYRTTPPQLDSDGTYFVYSKLSVDRSHWQRGNTYTCSVMHEALHFHHTQKSLTQSPGK | 0.0567 nM | 10.5 nM
7 | feline IgG1a mutant ID No. 364: S252Y, S434R, D401R (antibody, part only; not given: Variable domains, not shown: another chain or arm of the molecule) constant: ASTTAPSVFPLAPSCGTTSGATVALACLVLGYFPEPVTVSWNSGALTSGVHTFPAVLQASGLYSLSSMVTVPSSRWLSDTFTCNVAHPPSNTKVDKTVRKTDHPPGPKPCDCPKCPPPEMLGGPSIFIFPPKPKDTLYISRTPEVTCLVVDLGPDDSDVQITWFVDNTQVYTAKTSPREEQFNSTYRVVSVLPILHQDWLKGKEFKCKVNSKSLPSPIERTISKAKGQPHEPQVYVLPPAQEELSRNKVSVTCLIKSFHPPDIAVEWEITGQPEPENNYRTTPPQLDSRGTYFVYSKLSVDRSHWQRGNTYTCSVSHEALHRHHTQKSLTQSPGK | 0.732 nM | 24.4 nM
8 | feline IgG1a mutant ID No. 354: S252Y, S428M, S434F, T250Q (antibody, part only; not given: variable domains and light chain, not shown: another chain or arm of the molecule) constant: ASTTAPSVFPLAPSCGTTSGATVALACLVLGYFPEPVTVSWNSGALTSGVHTFPAVLQASGLYSLSSMVTVPSSRWLSDTFTCNVAHPPSNTKVDKTVRKTDHPPGPKPCDCPKCPPPEMLGGPSIFIFPPKPKDQLYISRTPEVTCLVVDLGPDDSDVQITWFVDNTQVYTAKTSPREEQFNSTYRVVSVLPILHQDWLKGKEFKCKVNSKSLPSPIERTISKAKGQPHEPQVYVLPPAQEELSRNKVSVTCLIKSFHPPDIAVEWEITGQPEPENNYRTTPPQLDSDGTYFVYSKLSVDRSHWQRGNTYTCSVMHEALHFHHTQKSLTQSPGK | 0.0192 nM | 4.46 nM
9 | feline IgG1a mutant ID No. 361: S252Y, S434R, D312P (antibody, part only; not given: Variable domains, not shown: another chain or arm of the molecule) constant: ASTTAPSVFPLAPSCGTTSGATVALACLVLGYFPEPVTVSWNSGALTSGVHTFPAVLQASGLYSLSSMVTVPSSRWLSDTFTCNVAHPPSNTKVDKTVRKTDHPPGPKPCDCPKCPPPEMLGGPSIFIFPPKPKDTLYISRTPEVTCLVVDLGPDDSDVQITWFVDNTQVYTAKTSPREEQFNSTYRVVSVLPILHQPWLKGKEFKCKVNSKSLPSPIERTISKAKGQPHEPQVYVLPPAQEELSRNKVSVTCLIKSFHPPDIAVEWEITGQPEPENNYRTTPPQLDSDGTYFVYSKLSVDRSHWQRGNTYTCSVSHEALHRHHTQKSLTQSPGK | 0.188 nM | 20.7 nM
10 | feline IgG1a mutant ID No. 363: S252Y, S434R, D399T (antibody, part only; not given: Variable domains, not shown: another chain or arm of the molecule) constant: ASTTAPSVFPLAPSCGTTSGATVALACLVLGYFPEPVTVSWNSGALTSGVHTFPAVLQASGLYSLSSMVTVPSSRWLSDTFTCNVAHPPSNTKVDKTVRKTDHPPGPKPCDCPKCPPPEMLGGPSIFIFPPKPKDTLYISRTPEVTCLVVDLGPDDSDVQITWFVDNTQVYTAKTSPREEQFNSTYRVVSVLPILHQDWLKGKEFKCKVNSKSLPSPIERTISKAKGQPHEPQVYVLPPAQEELSRNKVSVTCLIKSFHPPDIAVEWEITGQPEPENNYRTTPPQLTSDGTYFVYSKLSVDRSHWQRGNTYTCSVSHEALHRHHTQKSLTQSPGK | 0.923 nM | 38.9 nM
11 | feline IgG1a mutant ID No. 362: S252Y, S434R, D399M (antibody, part only; not given: Variable domains, not shown: another chain or arm of the molecule) constant: ASTTAPSVFPLAPSCGTTSGATVALACLVLGYFPEPVTVSWNSGALTSGVHTFPAVLQASGLYSLSSMVTVPSSRWLSDTFTCNVAHPPSNTKVDKTVRKTDHPPGPKPCDCPKCPPPEMLGGPSIFIFPPKPKDTLYISRTPEVTCLVVDLGPDDSDVQITWFVDNTQVYTAKTSPREEQFNSTYRVVSVLPILHQDWLKGKEFKCKVNSKSLPSPIERTISKAKGQPHEPQVYVLPPAQEELSRNKVSVTCLIKSFHPPDIAVEWEITGQPEPENNYRTTPPQLMSDGTYFVYSKLSVDRSHWQRGNTYTCSVSHEALHRHHTQKSLTQSPGK | 1.14 nM | 43.6 nM
12 | feline IgG1a mutant ID No. 359: S252Y, S434R, D312A (antibody, part only; not given: variable domains and light chain, not shown: another chain or arm of the molecule) constant: ASTTAPSVFPLAPSCGTTSGATVALACLVLGYFPEPVTVSWNSGALTSGVHTFPAVLQASGLYSLSSMVTVPSSRWLSDTFTCNVAHPPSNTKVDKTVRKTDHPPGPKPCDCPKCPPPEMLGGPSIFIFPPKPKDTLYISRTPEVTCLVVDLGPDDSDVQITWFVDNTQVYTAKTSPREEQFNSTYRVVSVLPILHQAWLKGKEFKCKVNSKSLPSPIERTISKAKGQPHEPQVYVLPPAQEELSRNKVSVTCLIKSFHPPDIAVEWEITGQPEPENNYRTTPPQLDSDGTYFVYSKLSVDRSHWQRGNTYTCSVSHEALHRHHTQKSLTQSPGK | 0.626 nM | 25.3 nM
13 | feline IgG1a mutant ID No. 355: S252Y, S428M, S434F, T256M (antibody, part only; not given: variable domains and light chain, not shown: another chain or arm of the molecule) constant: ASTTAPSVFPLAPSCGTTSGATVALACLVLGYFPEPVTVSWNSGALTSGVHTFPAVLQASGLYSLSSMVTVPSSRWLSDTFTCNVAHPPSNTKVDKTVRKTDHPPGPKPCDCPKCPPPEMLGGPSIFIFPPKPKDTLYISRMPEVTCLVVDLGPDDSDVQITWFVDNTQVYTAKTSPREEQFNSTYRVVSVLPILHQDWLKGKEFKCKVNSKSLPSPIERTISKAKGQPHEPQVYVLPPAQEELSRNKVSVTCLIKSFHPPDIAVEWEITGQPEPENNYRTTPPQLDSDGTYFVYSKLSVDRSHWQRGNTYTCSVMHEALHFHHTQKSLTQSPGK | 0.0964 nM | 15.7 nM
14 | feline IgG1a mutant ID No. 351: S252Y, S428M, S434F, Q311W (antibody, part only; not given: Variable domains, not shown: another chain or arm of the molecule) constant: ASTTAPSVFPLAPSCGTTSGATVALACLVLGYFPEPVTVSWNSGALTSGVHTFPAVLQASGLYSLSSMVTVPSSRWLSDTFTCNVAHPPSNTKVDKTVRKTDHPPGPKPCDCPKCPPPEMLGGPSIFIFPPKPKDTLYISRTPEVTCLVVDLGPDDSDVQITWFVDNTQVYTAKTSPREEQFNSTYRVVSVLPILHWDWLKGKEFKCKVNSKSLPSPIERTISKAKGQPHEPQVYVLPPAQEELSRNKVSVTCLIKSFHPPDIAVEWEITGQPEPENNYRTTPPQLDSDGTYFVYSKLSVDRSHWQRGNTYTCSVMHEALHFHHTQKSLTQSPGK | 0.011 nM | 3.35 nM
15 | feline IgG1a mutant ID No. 348: S252Y, S428M, S434F, Q311H (antibody, part only; not given: Variable domains, not shown: another chain or arm of the molecule) constant: ASTTAPSVFPLAPSCGTTSGATVALACLVLGYFPEPVTVSWNSGALTSGVHTFPAVLQASGLYSLSSMVTVPSSRWLSDTFTCNVAHPPSNTKVDKTVRKTDHPPGPKPCDCPKCPPPEMLGGPSIFIFPPKPKDTLYISRTPEVTCLVVDLGPDDSDVQITWFVDNTQVYTAKTSPREEQFNSTYRVVSVLPILHHDWLKGKEFKCKVNSKSLPSPIERTISKAKGQPHEPQVYVLPPAQEELSRNKVSVTCLIKSFHPPDIAVEWEITGQPEPENNYRTTPPQLDSDGTYFVYSKLSVDRSHWQRGNTYTCSVMHEALHFHHTQKSLTQSPGK | 0.00949 nM | 10.8 nM

Reference: patent publication US20240400708A1
